Measurements: patent publication US20260226194A1

Target: recombinant rabbit PAPPA (rabbit) (UniProt G1SFH7)
Test: SPR, Biacore 8K+, mAb captured on PrismA chip, PAPPA as analyte, 37 C, mean of n=3

Kd: 0.17 nM
koff: 0.000559 s⁻¹
kon: 3.28e+06 M⁻¹ s⁻¹
B1: TPP-12744 (antibody, human IgG1, kappa, V domains shown)
VH: QVQLVQSGAEVKKPGASVKVSCKASGYTFTSYAMHWVRQAPGQRLEWMGWMNAGTGATKSSQKFQGRVTITRDTSASTAYMELSSLRSEDTAVYYCARGPSMETPTTFGMDVWGQGTTVTVSS
VL: DIQMTQSPSSVSASVGDRVTITCRASQGISRWLAWYQQKPGKAPKLLIYAASSLQSGVPSRFSGSGSGTDFTLTISSLQPEDFATYYCQQENAYPFTFGGGTKVEIKR
